Data reported in the RNAGym collection of RNA variant scans (doi:10.1093/molbev/msab373).

B1: Azoarcus group I ribozyme (parent)
chain: GUGCCUUGCGCCGGGAAACCACGCAAGGGAUGGUGUCAAAUUCGGCGAAACCUAAGCGCCCGCCCGGGCGUAUGGCAACGCCGAGCCAAGCUUCGGCGCCUGCGCCGAUGAAGGUGUAGAGACUAGACGGCACCCACCUAAGGCAAACGCUAUGGUGAAGGCAUAGUCCAGGGAGUGGCGAAAGUCACACAAACCGG

Variants of: B1
Assay: reverse-splicing fitness (ratio to wild type); higher = more active; in vitro selection; Mg2+ level not given
Procedure, shortened: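 An in vitro group I ribozyme library with randomized positions was T7-transcribed and gel-purified. In triplicate, 10 pmol RNA in EPPS pH 7.5 was reacted with 50 pmoles of a 30-nt RNA substrate for 1 h at 37 °C across several added MgCl2 levels (1–48 mM), then stopped with EDTA. Products were reverse transcribed from a substrate-complementary primer, PCR-amplified and sequenced (HiSeq 4000). Fitness is a variant's read proportion after selection over that before, normalised to wild type.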
With C82G A111U A145G C150G C169A U176A the reverse-splicing fitness was 0.0133.
C82G A111U A145G C150G C169A U176G gave a reverse-splicing fitness of 0.00877.
For C82G A111U A145G C150G C169A U176C, the reverse-splicing fitness was 0.0129.
With C82G A111U A120U C150U U176G the reverse-splicing fitness was 0.00391.
C82G A111U A120U C150U U176C showed a reverse-splicing fitness of 0.0123.
Variant C82G A111U A120U C150U U176A has a reverse-splicing fitness of 0.00931.
With C82G A111U A120U A145U C150G C169A U176G the reverse-splicing fitness was 0.00233.
C82G A111U A120U A145U C150G C169A U176C gave a reverse-splicing fitness of 0.00246.
Variant C82G A111U A120U A145U C150G C169A U176A has a reverse-splicing fitness of 0.00343.
C82G A111U A120U C150A C169G U176G showed a reverse-splicing fitness of 0.00223.
Variant C82G A111U A120U C150A C169G U176C has a reverse-splicing fitness of 0.00406.
With C82G A111U A120U C150A C169G U176A the reverse-splicing fitness was 0.00827.
With C82G A111U A145U C150A C169A the reverse-splicing fitness was 0.0096.
Variant C82G A111U A145U C150A C169G has a reverse-splicing fitness of 0.00845.
C82G A111U A145U C150A C169U showed a reverse-splicing fitness of 0.00955.
With C82G A111U A120U A145U C150A U176G the reverse-splicing fitness was 0.00291.
With C82G A111U A120U A145U C150A U176A the reverse-splicing fitness was 0.00457.
C82G A111U A120U A145U C150A U176C gave a reverse-splicing fitness of 0.00518.
For C82G A111U A145G, the reverse-splicing fitness was 0.424.
C82G A111U A145C showed a reverse-splicing fitness of 0.365.
In the case of C82G A111U A145U, the reverse-splicing fitness is reported as 0.387.
Work on C82G A111U A120U C150G C169U U176G yielded a reverse-splicing fitness of 0.00257.
For C82G A111U A120U C150G C169U U176A, the reverse-splicing fitness was 0.00329.
C82G A111U A120U C150G C169U U176C showed a reverse-splicing fitness of 0.00541.
C82G A111U A145C C150U C169G U176A gave a reverse-splicing fitness of 0.022.
C82G A111U A145C C150U C169G U176C gave a reverse-splicing fitness of 0.0132.
C82G A111U A145C C150U C169G U176G showed a reverse-splicing fitness of 0.00635.
With C82G A111U A120U C150G C169A U176A the reverse-splicing fitness was 0.00533.
With C82G A111U A120U C150G C169A U176G the reverse-splicing fitness was 0.00291.
Variant C82G A111U A120U C150G C169A U176C has a reverse-splicing fitness of 0.00545.
C82G A111U A145G U176C showed a reverse-splicing fitness of 0.244.
Work on C82G A111U A145G U176G yielded a reverse-splicing fitness of 0.061.
C82G A111U A145G U176A gave a reverse-splicing fitness of 0.197.
Work on C82G A111U A145G C150G C169G U176C yielded a reverse-splicing fitness of 0.0129.
Work on C82G A111U A145G C150G C169G U176A yielded a reverse-splicing fitness of 0.0107.
For C82G A111U A145G C150G C169G U176G, the reverse-splicing fitness was 0.0062.
C82G A111U C150A showed a reverse-splicing fitness of 0.0323.
C82G A111U A120U A145U C169A U176C showed a reverse-splicing fitness of 0.00203.
For C82G A111U A120U A145U C169A U176A, the reverse-splicing fitness was 0.00292.
In the case of C82G A111U A120U A145U C169A U176G, the reverse-splicing fitness is reported as 0.00176.
With C82G A111U A145U C150A C169G U176A the reverse-splicing fitness was 0.014.
In the case of C82G A111U A145U C150A C169G U176C, the reverse-splicing fitness is reported as 0.0144.
Variant C82G A111U A145U C150A C169G U176G has a reverse-splicing fitness of 0.0066.
C82G A111U A145C C169G U176A showed a reverse-splicing fitness of 0.0258.
Work on C82G A111U A145C C169G U176G yielded a reverse-splicing fitness of 0.00528.
Work on C82G A111U A145C C169G U176C yielded a reverse-splicing fitness of 0.0144.
With C82G A111U A145C C150A U176C the reverse-splicing fitness was 0.0187.
Work on C82G A111U A145C C150A U176G yielded a reverse-splicing fitness of 0.00844.
In the case of C82G A111U A145C C150A U176A, the reverse-splicing fitness is reported as 0.0163.
Work on C82G A111U A145U C169A U176C yielded a reverse-splicing fitness of 0.011.
Work on C82G A111U A145U C169A U176A yielded a reverse-splicing fitness of 0.0121.
C82G A111U A145U C169A U176G gave a reverse-splicing fitness of 0.00626.
Work on C82G A111U A120U C150A C169A U176G yielded a reverse-splicing fitness of 0.00233.
C82G A111U A120U C150A C169A U176C showed a reverse-splicing fitness of 0.00429.
For C82G A111U A120U C150A C169A U176A, the reverse-splicing fitness was 0.00677.
C82G A111U A120U A145U C150A C169A showed a reverse-splicing fitness of 0.00224.
With C82G A111U A120U A145U C150A C169G the reverse-splicing fitness was 0.00289.
In the case of C82G A111U A120U A145U C150A C169U, the reverse-splicing fitness is reported as 0.00264.
C82G A111U A120U A145U gave a reverse-splicing fitness of 0.0429.
Variant C82G A111U A145U C150A C169U U176G has a reverse-splicing fitness of 0.00579.
C82G A111U A145U C150A C169U U176C showed a reverse-splicing fitness of 0.0129.
C82G A111U A145U C150A C169U U176A showed a reverse-splicing fitness of 0.0141.
C82G A111U A145G C150U C169U U176G gave a reverse-splicing fitness of 0.00638.
C82G A111U A145G C150U C169U U176C showed a reverse-splicing fitness of 0.0146.
For C82G A111U A145G C150U C169U U176A, the reverse-splicing fitness was 0.0152.
In the case of C82G A111U A145G C150U C169U, the reverse-splicing fitness is reported as 0.0119.
C82G A111U A145G C150U C169A gave a reverse-splicing fitness of 0.0114.
For C82G A111U A145G C150U C169G, the reverse-splicing fitness was 0.00982.
Variant C82G A111U A120U A145U C150U C169A has a reverse-splicing fitness of 0.00323.
Work on C82G A111U A120U A145U C150U C169G yielded a reverse-splicing fitness of 0.00327.
With C82G A111U A120U A145U C150U C169U the reverse-splicing fitness was 0.00381.
C82G A111U A145U C169G U176G showed a reverse-splicing fitness of 0.00618.
In the case of C82G A111U A145U C169G U176C, the reverse-splicing fitness is reported as 0.0128.
For C82G A111U A145U C169G U176A, the reverse-splicing fitness was 0.0122.
Variant C82G A111U A145G C150G U176A has a reverse-splicing fitness of 0.0137.
With C82G A111U A145G C150G U176C the reverse-splicing fitness was 0.0285.
For C82G A111U A145G C150G U176G, the reverse-splicing fitness was 0.00893.
Work on C82G A111U A120U C169A yielded a reverse-splicing fitness of 0.0043.
For C82G A111U A120U C169U, the reverse-splicing fitness was 0.00476.
C82G A111U A120U C169G gave a reverse-splicing fitness of 0.00462.
Variant C82G A111U A145G C150A C169U has a reverse-splicing fitness of 0.0113.
C82G A111U A145G C150A C169G showed a reverse-splicing fitness of 0.00989.
C82G A111U A145G C150A C169A showed a reverse-splicing fitness of 0.0112.
